# Reference: the supplement of paper PMC9170038
# Tested on: MS2 coat protein
# Assay: apparent KD of MS2 coat protein; designed switch direction (-1 OFF switch, 1 ON switch): -1; higher = weaker reporter binding
# How it was run: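 SNAP-549-labelled MS2 coat protein was titrated, doubling from 0.7 or 1.5 nM to 3 µM, over designed RNA switches transcribed on Illumina chips by stalled E. coli RNA polymerase. Runs were done without input, with 200 uM small-molecule ligand, or with an oligonucleotide input. Apparent KD is the per-design median over clusters of curve-fitted normalised fluorescence.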
# [1] = Eterna round: R95, input ligand: FMN 200 uM
# [2] = Eterna round: R95, input ligand: microRNA oligo, concentration not stated
# [3] = Eterna round: R95, input ligand: none
# [4] = input ligand: microRNA oligo, concentration not stated
sequence,measurement,setting,value
CAGGACUUAGGAUAUCAUGUGCGAGACAUGAGGAUCACCCAUGUAGGAAGCCGUCGCGGGUGAGAAGGAGGGCGAU [Exclusion 5 S1] (puzzle: Exclusion 5),apparent KD of MS2 coat protein,[1],266 nM
same,apparent KD of MS2 coat protein,[2],277 nM
same,apparent KD of MS2 coat protein,[3],366 nM
"CUUAAAAGGAAGGAUAUGCUAGACGAAAGUCUAGCAGAAGGUCCUACAUGAGGAUCACCCAUGUGUCCUGUAAG [Mat - Exclusion 6 - Eli Mod - D41] (Eterna round: R97, puzzle: Exclusion 6)",apparent KD of MS2 coat protein,input ligand: FMN 200 uM,95.6 nM
same,apparent KD of MS2 coat protein,input ligand: none,53.9 nM
"AUAAUGUGAGGAUAUCAGUCGACUAGCUGCGGCUAGUCGACUGAGAAGGUACAUGAGGAUCACCCAUGUGGUUC [E4/11-B3] (Eterna round: R97, puzzle: Exclusion 4)",apparent KD of MS2 coat protein,input ligand: FMN 200 uM,904 nM
same,apparent KD of MS2 coat protein,input ligand: none,434 nM
"GCCUUAUCCGUCAGGAUAUACAGCCGCUCCCUGUUGUAGAAGGGACAUGAGGAUCACCCAUGUACGUACCACUG [alecazam7] (Eterna round: R97, puzzle: Brourd's mod of Exclusion 4)",apparent KD of MS2 coat protein,input ligand: FMN 200 uM,28.7 nM
same,apparent KD of MS2 coat protein,input ligand: none,22.6 nM
"CGUCAGUGAGGAUAUGGUAACGUUUACAUGAGGAUCACCCAUGUUUCAUGGGACUAGAGACUAGAAGGUACUGACG [EX5 #42] (Eterna round: R97, puzzle: Exclusion 5)",apparent KD of MS2 coat protein,input ligand: FMN 200 uM,189 nM
same,apparent KD of MS2 coat protein,input ligand: none,132 nM
"AAUUAGUAUGUGAGGAUAUUGAUGAGAUGAUGGUUUAAGAAGGCACAUGAGGAUCACCCAUGUAGGAAAUAACG [JR_BMEx4_Sub005] (Eterna round: R97, puzzle: Brourd's mod of Exclusion 4)",apparent KD of MS2 coat protein,input ligand: FMN 200 uM,37.8 nM
same,apparent KD of MS2 coat protein,input ligand: none,24.4 nM
"AGUUCUAACACGUUGGUGUUAGUACCAUAAGCUUGUGAUACAUGAGGAUCACCCAUGUCCUCAUAAGCUCGUCUUAU [salish99_TOv2_r3_1001] (Eterna round: R96, puzzle: Sensor v3, turn-off variant 2)",apparent KD of MS2 coat protein,input ligand: FMN 200 uM,25.2 nM
same,apparent KD of MS2 coat protein,[4],563 nM
same,apparent KD of MS2 coat protein,input ligand: none,27.3 nM
"CCUCGGUCAGGAUAUGGGCCAUGCGAUGAUGAAGCCUGGCGCCAGAAGGGACAUGAGGAUCACCCAUGUCCGUA [Eternabot (Original) Solution 37] (Eterna round: R97, puzzle: Exclusion 4)",apparent KD of MS2 coat protein,input ligand: FMN 200 uM,71.3 nM
same,apparent KD of MS2 coat protein,input ligand: none,17.2 nM
"AGAGAAUAGUCAGGAUAUGUGAAUAGAUAGAGAACAGAAGGGACACAUGAGGAUCACCCAUGUGAAGUCUUGAGGCUGCAUGGA [Prohibition 22 - Jieux - Exclusion NG 1] (Eterna round: R96, puzzle: Exclusion NG 1)",apparent KD of MS2 coat protein,input ligand: FMN 200 uM,43.9 nM
same,apparent KD of MS2 coat protein,[4],24.1 nM
same,apparent KD of MS2 coat protein,input ligand: none,39 nM
AAUAACAGAGGAUAUACUGUUUUAUGUGUUUGUUAUUUUAAACAUGAGGAUCACCCAUGUAGAAGGCUGAAUAA [JMF 15] (puzzle: Exclusion 2),apparent KD of MS2 coat protein,[2],19.8 nM
"AUUAUAAAUGUAGGAUAUCUGCACGAUUAGUGCAGAGAAGGACAUGAGGAUCACCCAUGUAGAUCAAUAAUAAUUAAUUUAAUU [ENG1/5-B1] (Eterna round: R96, puzzle: Exclusion NG 1)",apparent KD of MS2 coat protein,input ligand: FMN 200 uM,184 nM
same,apparent KD of MS2 coat protein,[4],34 nM
same,apparent KD of MS2 coat protein,input ligand: none,39.8 nM
"AACAACGUAGGAUAUGCAGCUACGGACUUGAGGAUCACCCAAGUGAUCAUAGCCCGUAUAGCAGAAGGGCGGAUCA [Arontebi] (Eterna round: R97, puzzle: Exclusion 5)",apparent KD of MS2 coat protein,input ligand: FMN 200 uM,321 nM
same,apparent KD of MS2 coat protein,input ligand: none,224 nM
"CGUGUCUUUCACGUGAGUGGUGGGUGCAACAGGUGGGUUACAUGAGGAUCACCCAUGUCCUCACUUGCUCGUCUUUU [Grok-var2-04] (puzzle: Sensor v3, turn-off variant 2)",apparent KD of MS2 coat protein,[1],36.1 nM
same,apparent KD of MS2 coat protein,[2],109 nM
same,apparent KD of MS2 coat protein,[3],37.2 nM
"AGUCCUGGAGUUAGGAUAUGGUGUAUCGCUGCGCUUCAGAAGGGACUUGAGGAUCACCCAAGUAGCCGUGAGGG [salish99_bmod_ex4_r4_007] (Eterna round: R97, puzzle: Brourd's mod of Exclusion 4)",apparent KD of MS2 coat protein,input ligand: FMN 200 uM,49.9 nM
same,apparent KD of MS2 coat protein,input ligand: none,60.2 nM
CCAGCGUGUGUGAGGAUAUGCUGGUCCUUGGAUCAGCAGAAGGCACAUGAGGAUCACCCAUGUGAGUACGUUGG [JL bmx4 3.34] (puzzle: Brourd's mod of Exclusion 4),apparent KD of MS2 coat protein,[2],15 nM
"GUUCAACAUGAGGAUCACCCAUGUCAGGAUAUGCGAAUUUCAUCAAAAGAUGAAAUUUGCAGAAGGGACUGAAC [Omei Ex1 A30] (Eterna round: R97, puzzle: Exclusion 1)",apparent KD of MS2 coat protein,input ligand: FMN 200 uM,30.5 nM
same,apparent KD of MS2 coat protein,input ligand: none,27.2 nM
"GGCACACAUGAGGAUCACCCAUGUGAGGAUAUGUGGCGAUCGUCGAUAGACGAUAGCCACAGAAGGCACAUGCC [Mat - Exclusion 1 - Eli Mod - D9] (Eterna round: R97, puzzle: Exclusion 1)",apparent KD of MS2 coat protein,input ligand: FMN 200 uM,39.4 nM
same,apparent KD of MS2 coat protein,input ligand: none,17.8 nM
"AUAUCACAUGAGGAUCACCCAUGUCAGGAUAUCGACUGAACAGCUUCGGCUGUUCAGUCGAGAAGGGACAAUUA [Brourdxlusion 2 - Jieux - Exclusion 1] (Eterna round: R97, puzzle: Exclusion 1)",apparent KD of MS2 coat protein,input ligand: FMN 200 uM,84.9 nM
same,apparent KD of MS2 coat protein,input ligand: none,56.2 nM
UGAUCUUGGGUCAGGAUAUGCUGGUAUUUUUGCCAGCAGAAGGGACAUGAGGAUCACCCAUGUUCUUGGUUUUU [Magic-14] (puzzle: Brourd's mod of Exclusion 4),apparent KD of MS2 coat protein,[2],10.4 nM
AAAAAACAAGGAUAUACGAAGGAGGGUUGUCUUAAUUUUUGACAUGAGGAUCACCCAUGUAGAAGGUGUUAAAA [JR_Exclusion2_Sub012] (puzzle: Exclusion 2),apparent KD of MS2 coat protein,[1],146 nM
same,apparent KD of MS2 coat protein,[2],186 nM
same,apparent KD of MS2 coat protein,[3],188 nM
CCAUCGAGUGUGAGGAUAUGCUGGUCCUUGGAUCAGCAGAAGGCACAUGAGGAUCACCCAUGUGGAGACGGUGG [JL bmx4 3.18] (puzzle: Brourd's mod of Exclusion 4),apparent KD of MS2 coat protein,[2],44.3 nM
"GGUAAGCUAGGAUAUGCUUUGGGAAAGCAUUCCUUCGAUAAACUUGAGGAUCACCCAAGUAGAAGGAGCUUCCC [salish99_ex2_r4_017] (Eterna round: R97, puzzle: Exclusion 2)",apparent KD of MS2 coat protein,input ligand: FMN 200 uM,11.2 nM
same,apparent KD of MS2 coat protein,input ligand: none,11 nM
AGAUCCUGAGUCAGGAUAUAGAGACGGUAGUCGGGCUAGAAGGGACAUGAGGAUCACCCAUGUGGGUUCGGGCC [Zarareso] (puzzle: Brourd's mod of Exclusion 4),apparent KD of MS2 coat protein,[2],12.8 nM
"AGUAGAUCUACGCUUGCGUGGAUCUGCAAUGCAGGUGUUACAUGAGGAUCACCCAUGUCCUCAUUUGCUCGUCUUAG [JL turnoff v2 99.06] (puzzle: Sensor v3, turn-off variant 2)",apparent KD of MS2 coat protein,[1],97.4 nM
same,apparent KD of MS2 coat protein,[2],663 nM
same,apparent KD of MS2 coat protein,[3],91.9 nM
"CCGUUCCGUGUAGGAUAUUGGCCUUCCUCGGGCCGAGAAGGACAUGAGGAUCACCCAUGUAUGCUAUUAUCGCGCGUGGCGCAC [Design 97] (Eterna round: R96, puzzle: Exclusion NG 1)",apparent KD of MS2 coat protein,input ligand: FMN 200 uM,158 nM
same,apparent KD of MS2 coat protein,[4],22.6 nM
same,apparent KD of MS2 coat protein,input ligand: none,39.1 nM
"UACCUAUAGGUAGGAUAUCAUUGCGAUUAGCUAUGAGAAGGACCACAUGAGGAUCACCCAUGUCCUCCAAUUAACCGAAAGGUA [Fiskers ExNg1 - 2] (Eterna round: R96, puzzle: Exclusion NG 1)",apparent KD of MS2 coat protein,input ligand: FMN 200 uM,77.3 nM
same,apparent KD of MS2 coat protein,[4],39.7 nM
same,apparent KD of MS2 coat protein,input ligand: none,50.4 nM
"GGUCGUCAAGUCAGGAUAUCGUUUGGUCGGUGUAACGAGAAGGGACAUGAGGAUCACCCAUGUCGUCUCAUCAG [Ex4 #28] (Eterna round: R97, puzzle: Brourd's mod of Exclusion 4)",apparent KD of MS2 coat protein,input ligand: FMN 200 uM,29.3 nM
same,apparent KD of MS2 coat protein,input ligand: none,20.4 nM
"UCGUUCCGUGUAGGAUAUUGGCCUUCCCUGGGCCGAGAAGGACAUGAGGAUCACCCAUGUAUGUUAUUAUCGCGCGUGGCGCAU [Design 86] (Eterna round: R96, puzzle: Exclusion NG 1)",apparent KD of MS2 coat protein,input ligand: FMN 200 uM,73.9 nM
same,apparent KD of MS2 coat protein,[4],14.5 nM
same,apparent KD of MS2 coat protein,input ligand: none,18.4 nM
"UAUAUAUAGUAAGGAUAUGUAAUUAUUUUAUUAACAGAAGGUACUGACAUGAGGAUCACCCAUGUUUUAGUGUGGGCAUGUAGA [JMF's solution 47] (Eterna round: R96, puzzle: Exclusion NG 1)",apparent KD of MS2 coat protein,[4],72.6 nM
"CAGUACUGAGGAUAUACAUGAGGAUCACCCAUGUGUUCCAGCUAGGAAACUAGCAAGAGUAGAAGGCAGUACUG [salish99_ex3_r3_066] (Eterna round: R96, puzzle: Exclusion 3)",apparent KD of MS2 coat protein,input ligand: FMN 200 uM,543 nM
same,apparent KD of MS2 coat protein,[4],18.5 nM
same,apparent KD of MS2 coat protein,input ligand: none,22.9 nM
"UUUUACAUGCUGAGAUCCUACAUGAGGAUCACCCAUGUGGUCCGGAAAAUUUUGUCACCGGAUUUUGCUCGUCUUGU [salish99_S_TOV1_R5_102] (Eterna round: R97, puzzle: Sensor, turn-off variant 1)",apparent KD of MS2 coat protein,input ligand: FMN 200 uM,69.5 nM
same,apparent KD of MS2 coat protein,input ligand: none,112 nM
"UUGCGAAGAGGAUAUUUUGUCAUCAACAUGAGGAUCACCCAUGUCUUCCUUUAUGCUAUAGAAGAAGGCUUCCAGU [Eternabot (L2) Solution 63] (Eterna round: R97, puzzle: Exclusion 5)",apparent KD of MS2 coat protein,input ligand: FMN 200 uM,59.9 nM
same,apparent KD of MS2 coat protein,input ligand: none,37.1 nM
"CGGGUUCGUGUUAGGAUAUGCACGCACCCGUAGCGGCAGAAGGAACAUGAGGAUCACCCAUGUGAAUAAGAAAA [BmEX4 A.3] (Eterna round: R97, puzzle: Brourd's mod of Exclusion 4)",apparent KD of MS2 coat protein,input ligand: FMN 200 uM,18.3 nM
same,apparent KD of MS2 coat protein,input ligand: none,15.5 nM
GUGAUACAUGAGGAUCACCCAUGUCAGGAUAUGAUACUAUGUACUUCGGUACAUAGUAUCAGAAGGGACAGUGA [Ex1-3: 4] (puzzle: Exclusion 1),apparent KD of MS2 coat protein,[2],125 nM
